For two molecules, activity results are on record in patent publication US20140223606, “COMPOSITIONS AND METHODS COMPRISING SEQUENCES HAVING MEGANUCLEASE ACTIVITY” (PIONEER HI BRED INTERNATIONAL INC, published 2014).

Holding throughout (settings): tags: NLS, 6xHis
Series [1] has as its target T1, ZM6.3(H1) (artificial).
T1 chain: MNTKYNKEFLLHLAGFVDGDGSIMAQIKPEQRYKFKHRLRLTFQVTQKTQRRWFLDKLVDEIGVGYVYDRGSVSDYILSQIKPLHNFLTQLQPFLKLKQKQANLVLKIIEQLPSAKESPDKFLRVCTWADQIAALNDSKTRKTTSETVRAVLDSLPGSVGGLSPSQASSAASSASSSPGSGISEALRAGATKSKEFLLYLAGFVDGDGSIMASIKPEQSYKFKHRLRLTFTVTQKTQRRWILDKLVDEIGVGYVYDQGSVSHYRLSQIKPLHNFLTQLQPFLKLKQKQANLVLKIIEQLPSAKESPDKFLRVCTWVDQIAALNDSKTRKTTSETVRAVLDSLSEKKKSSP
Briefly: cell_activity; yeast 37 C; 28 C: 4. The procedure: (§1) A 3 mL culture of selective media (MP Biomedical) was inoculated with a single colony of the yeast screening strain and grown at 30° C. overnight. On the following day, a 50 ml YPD culture (MP Biomedical) was started with 2 ml of the overnight culture and grown at 30° C. overnight. On the following day, the cells were harvested by centrifugation at 4000 rpm. The cells were resuspended in 100 ml ice cold water and centrifuged again. The cells were then washed in 1.2 M sorbitol, followed by treatment with 2 ml of 10 mM Tris pH 8.0, 1 mM EDTA, 100 mM Lithium acetate, 10 mM DTT, 0.6M sorbitol for 30 minutes at 30° C. with shaking. The cells were recovered by centrifugation, washed in 40 ml 1.2M sorbitol and finally resuspended in 250 microliters of 1.2M sorbitol. 50 microliter aliquots were transferred to test tubes on ice. Up to 5 microliters of DNA (100-500 nanograms) were added. The suspension was transferred to a 0.2 cm electroporation cuvette, on ice. Electroporation was performed with a pulse charge at 1.5 kV, 200 ohms, 25 microF (pulse time of 5 milliseconds). 1 mL YPD media (MP Biomedical) was added and the cells were allowed to recover at 30° C. for 1-2 hr. The cells were centrifuged, resuspended in 100 uL 1M sorbitol and plated on selective media lacking leucine and containing 2% galactose. The resulting yeast colonies were incubated at various temperatures ranging from 22 to 37 degrees Celsius for 7-10 days. I-CreI and meganucleases derived from it have maximal activity at or above 37 degrees Celsius. Screening was performed at a range of temperatures from 22 to 37 degrees in order to observe increases in activity at lower temperatures which are relevant to certain biological systems (eg. plant cells, plant cell cultures, etc). At that time the red/white sectoring phenotype, indicative of meganuclease activity was observed. Colonies with increased white sectoring over the parental meganuclease (indicating colonies expressing a meganuclease with increased meganuclease activity), also referred to as “hits” and sometimes completely white, were isolated for further analysis.
(§2) A total of 15 Zm6.3 variants with increased activity were confirmed in the yeast system (as described in Example 6). Increased activity was observed across a range of temperatures: 28 degrees Celsius, 30 degrees Celsius and 37 degrees Celsius, as shown in Table 15.

Series [2] addresses T2, ZM6.3(G6) (artificial).
T2 chain: T1 chain with H12Y, M24K, R32S, F54I, K57E, V105A, A129V, Q237R, I241F, R311E
Kind of series: cell_activity; yeast 37 C; 28 C: 4. The procedure: as §1, §2

Series [3] addresses T3, LIG3-4(B40) (artificial).
T3 chain: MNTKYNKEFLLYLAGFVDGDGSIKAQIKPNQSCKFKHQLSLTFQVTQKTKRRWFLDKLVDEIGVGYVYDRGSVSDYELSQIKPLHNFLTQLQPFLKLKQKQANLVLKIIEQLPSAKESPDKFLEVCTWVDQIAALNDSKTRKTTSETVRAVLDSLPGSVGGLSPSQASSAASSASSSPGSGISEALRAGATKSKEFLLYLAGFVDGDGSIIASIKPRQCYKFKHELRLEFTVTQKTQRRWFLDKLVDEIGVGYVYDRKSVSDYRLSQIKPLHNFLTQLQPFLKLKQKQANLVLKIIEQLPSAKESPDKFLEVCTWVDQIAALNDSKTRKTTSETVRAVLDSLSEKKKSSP
Kind of series: cell_activity; yeast 30 C; 22 C: 0. As to the method: as §1

Series [4] has as its target T4, LIG3-4(A6) (artificial).
T4 chain: T3 chain with K50Q, I132V, K258G, F281Y
Briefly: cell_activity; yeast 30 C; 22 C: 0. As to the method:
as §1

Series [5] concerns the target T5, LIG3-4(B24) (artificial).
T5 chain: T3 chain with S22C, K50Q, K258G
Briefly: cell_activity; yeast 30 C; 22 C: 0. The procedure: as §1

Substitutions are numbered along the chain they refer to.

B1: ZM6.3 recognition site (dsDNA)
DNA 1: CAGGCTCTCGTAAATGCGCCTG
DNA 2: CAGGCGCATTTACGAGAGCCTG
Take B1: the activity in series [1] and in series [2] was 4 score 0-4 each time.

B2: LIG3-4 recognition site (dsDNA)
DNA 1: ATATACCTCACACGTACGCGTA
DNA 2: TACGCGTACGTGTGAGGTATAT
Turning to B2, the activity was found to be 4 score 0-4 in series [3], 3 score 0-4 in series [4] and 4 score 0-4 in series [5].
